Patent publication EP4624492A1 (Shanghai Hongcheng Biopharmaceutical Co., Ltd., dated 2025)

Key:
human CCR8 [1] = molecular target: T1, human CCR8 (human, UniProt P51685 1-355); experiment: cell-based or functional assay
human CCR8 [2] = molecular target: T1, human CCR8; experiment: flow cytometry, competition with 10 nM AF647-human CCL1 on 293F-hCCR8 cells
human CCR8 [3] = molecular target: T1, human CCR8; experiment: cell-based or functional assay; remark: listed apart in the source
human CCR8 [4] = molecular target: T1, human CCR8; experiment: flow cytometry on 293F-hCCR8 cells

T1 sequence (P51685 whole entry): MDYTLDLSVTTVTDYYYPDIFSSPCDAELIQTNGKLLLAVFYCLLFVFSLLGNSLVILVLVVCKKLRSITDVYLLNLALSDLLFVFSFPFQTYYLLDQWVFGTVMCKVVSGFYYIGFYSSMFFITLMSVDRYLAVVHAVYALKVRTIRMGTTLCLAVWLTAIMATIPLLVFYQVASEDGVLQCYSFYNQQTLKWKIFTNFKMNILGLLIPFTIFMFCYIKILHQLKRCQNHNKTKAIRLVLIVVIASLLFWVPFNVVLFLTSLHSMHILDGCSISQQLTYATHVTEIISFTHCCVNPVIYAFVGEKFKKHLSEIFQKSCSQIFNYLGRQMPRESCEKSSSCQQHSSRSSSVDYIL

| Binder | EC50 of activation of Jurkat-human FcγRIIIa(158V)-NFAT with 293F-hCCR8 target cells (human CCR8 [1]) | IC50 (human CCR8 [2]) | IC50 of blockade of CCL1-induced β-arrestin recruitment (human CCR8 [3]) | EC50 (human CCR8 [4]) |
| --- | --- | --- | --- | --- |
| 563E10E12_hzH3L0_hIgG1 (antibody, Humanized, hIgG1/K) heavy: not shown light: DIVMTQSPLSLPVTPGEPASISCRSSKSLLHSNGITYLFWYLQKPGQSPQLLIYQMSNLASGVPDRFSGSGSGTDFTLKISRVEAEDVGVYYCAQSLELPLTFGGGTKVEIKRTVAAPSVFIFPPSDEQLKSGTASVVCLLNNFYPREAKVQWKVDNALQSGNSQESVTEQDSKDSTYSLSSTLTLSKADYEKHKVYACEVTHQGLSSPVTKSFNRGEC | 0.0357 µg/mL | 0.0761 µg/mL | 1.16 µg/mL | 0.133 µg/mL |
| 563E10E12_hzH0L1_hIgG1 (antibody) heavy: not shown light: DVVMTQSPLSLPVTPGEPASISCRSSKSLLHSNGITYLFWYLQKPGQSPQLLIYQMSNLASGVPDRFSGSGSGTDFTLKISRVEAEDVGVYYCAQSLELPLTFGGGTKVEIKRTVAAPSVFIFPPSDEQLKSGTASVVCLLNNFYPREAKVQWKVDNALQSGNSQESVTEQDSKDSTYSLSSTLTLSKADYEKHKVYACEVTHQGLSSPVTKSFNRGEC | 0.0299 µg/mL | 0.0862 µg/mL | 3.65 µg/mL | 0.118 µg/mL |
| 563E10E12_hzH2L0_hIgG1 (antibody, Humanized, hIgG1/K) heavy: not shown light: DIVMTQSPLSLPVTPGEPASISCRSSKSLLHSNGITYLFWYLQKPGQSPQLLIYQMSNLASGVPDRFSGSGSGTDFTLKISRVEAEDVGVYYCAQSLELPLTFGGGTKVEIKRTVAAPSVFIFPPSDEQLKSGTASVVCLLNNFYPREAKVQWKVDNALQSGNSQESVTEQDSKDSTYSLSSTLTLSKADYEKHKVYACEVTHQGLSSPVTKSFNRGEC | 0.0281 µg/mL | 0.0689 µg/mL | 1.46 µg/mL | 0.103 µg/mL |
| 563E10E12_hzH6L0_hIgG1 (antibody, Humanized, hIgG1/K) heavy: not shown light: DIVMTQSPLSLPVTPGEPASISCRSSKSLLHSNGITYLFWYLQKPGQSPQLLIYQMSNLASGVPDRFSGSGSGTDFTLKISRVEAEDVGVYYCAQSLELPLTFGGGTKVEIKRTVAAPSVFIFPPSDEQLKSGTASVVCLLNNFYPREAKVQWKVDNALQSGNSQESVTEQDSKDSTYSLSSTLTLSKADYEKHKVYACEVTHQGLSSPVTKSFNRGEC |  | 0.0543 µg/mL | 1.84 µg/mL | 0.0569 µg/mL |
| 563E10E12_hzH0L0_hIgG1 (antibody, Humanized, hIgG1/K) heavy: not shown light: DIVMTQSPLSLPVTPGEPASISCRSSKSLLHSNGITYLFWYLQKPGQSPQLLIYQMSNLASGVPDRFSGSGSGTDFTLKISRVEAEDVGVYYCAQSLELPLTFGGGTKVEIKRTVAAPSVFIFPPSDEQLKSGTASVVCLLNNFYPREAKVQWKVDNALQSGNSQESVTEQDSKDSTYSLSSTLTLSKADYEKHKVYACEVTHQGLSSPVTKSFNRGEC | 0.0286 µg/mL | 0.0958 µg/mL | 3.51 µg/mL | 0.107 µg/mL |
| 563E10E12_hzH6L1_hIgG1 (antibody, Humanized, hIgG1/K) heavy: not shown light: DVVMTQSPLSLPVTPGEPASISCRSSKSLLHSNGITYLFWYLQKPGQSPQLLIYQMSNLASGVPDRFSGSGSGTDFTLKISRVEAEDVGVYYCAQSLELPLTFGGGTKVEIKRTVAAPSVFIFPPSDEQLKSGTASVVCLLNNFYPREAKVQWKVDNALQSGNSQESVTEQDSKDSTYSLSSTLTLSKADYEKHKVYACEVTHQGLSSPVTKSFNRGEC |  | 0.0579 µg/mL | 1.65 µg/mL | 0.0593 µg/mL |
| 27B9-1G3_hzH1L2_hIgG1 (antibody, V domains shown, Humanized, hIgG1/K; hzVH01 + hzVL02) VH: QVQLVQSGAEVKKPGSSVKVSCKASGGTFSGYNMNWVRQAPGQGLEWMGNIDPYYGGTNYNQKFKGRVTITADKSTSTAYMELSSLRSEDTAVYYCARETWFITTGVIKKGFYFDYWGQGTTVTVSS VL: EIVLTQSPATLSLSPGERATLACSASSIISSNYLHWYQQKPGQAPRLLIYRTSSLASGIPARFSGSGSGTDYTLTISSLEPEDFAVYYCQQGSSIPRTFGGGTKVEIKR |  | 0.291 µg/mL |  | 0.237 µg/mL |
| 27B9-1G3_hzH2L3_hIgG1 (antibody, V domains shown, Humanized, hIgG1/K; hzVH02 + hzVL03) VH: QVQLVQSGAEVKKPGSSVKVSCKASGYSFTGYNMNWVRQAPGQGLEWMGNIDPYYGGTNYNQKFKGRVTITADKSTSTAYMELSSLRSEDTAVYYCARETWFITTGVIKKGFYFDYWGQGTTVTVSS VL: EIVLTQSPATLSLSPGERATLACSASSIISSNYLHWYQQKPGQSPRLLIYRTSSLASGVPARFSGSGSGTSYTLTISSLEPEDFAVYYCQQGSSIPRTFGGGTKVEIKR |  | 0.192 µg/mL |  | 0.212 µg/mL |
| 27B9-1G3_hzH3L3_hIgG1 (antibody, V domains shown, Humanized, hIgG1/K; hzVH03 + hzVL03) VH: QVQLVQSGAEVKKPGSSVKVSCKASGGTFSGYNMNWVRQAPGQGLEWMGNIDPYYGGTNYNQKFKGKATITADKSTSTAYMELSSLRSEDTAVYYCARETWFITTGVIKKGFYFDYWGQGTTVTVSS VL: EIVLTQSPATLSLSPGERATLACSASSIISSNYLHWYQQKPGQSPRLLIYRTSSLASGVPARFSGSGSGTSYTLTISSLEPEDFAVYYCQQGSSIPRTFGGGTKVEIKR |  | 0.189 µg/mL |  | 0.198 µg/mL |
| 27B9-1G3_hzH1L1_hIgG1 (antibody, V domains shown, Humanized, hIgG1/K; hzVH01 + hzVL01) VH: QVQLVQSGAEVKKPGSSVKVSCKASGGTFSGYNMNWVRQAPGQGLEWMGNIDPYYGGTNYNQKFKGRVTITADKSTSTAYMELSSLRSEDTAVYYCARETWFITTGVIKKGFYFDYWGQGTTVTVSS VL: EIVLTQSPATLSLSPGERATLSCSASSIISSNYLHWYQQKPGQAPRLLIYRTSSLASGIPARFSGSGSGTDFTLTISSLEPEDFAVYYCQQGSSIPRTFGGGTKVEIKR |  | 0.31 µg/mL |  | 0.188 µg/mL |
| 27B9-1G3_hzH3L1_hIgG1 (antibody, V domains shown, Humanized, hIgG1/K; hzVH03 + hzVL01) VH: QVQLVQSGAEVKKPGSSVKVSCKASGGTFSGYNMNWVRQAPGQGLEWMGNIDPYYGGTNYNQKFKGKATITADKSTSTAYMELSSLRSEDTAVYYCARETWFITTGVIKKGFYFDYWGQGTTVTVSS VL: EIVLTQSPATLSLSPGERATLSCSASSIISSNYLHWYQQKPGQAPRLLIYRTSSLASGIPARFSGSGSGTDFTLTISSLEPEDFAVYYCQQGSSIPRTFGGGTKVEIKR |  | 0.121 µg/mL |  | 0.175 µg/mL |
| 27B9-1G3_hzH3L2_hIgG1 (antibody, V domains shown, Humanized, hIgG1/K; hzVH03 + hzVL02) VH: QVQLVQSGAEVKKPGSSVKVSCKASGGTFSGYNMNWVRQAPGQGLEWMGNIDPYYGGTNYNQKFKGKATITADKSTSTAYMELSSLRSEDTAVYYCARETWFITTGVIKKGFYFDYWGQGTTVTVSS VL: EIVLTQSPATLSLSPGERATLACSASSIISSNYLHWYQQKPGQAPRLLIYRTSSLASGIPARFSGSGSGTDYTLTISSLEPEDFAVYYCQQGSSIPRTFGGGTKVEIKR |  | 0.15 µg/mL |  | 0.2 µg/mL |
| 27B9-1G3_hzH2L1_hIgG1 (antibody, V domains shown, Humanized, hIgG1/K; hzVH02 + hzVL01) VH: QVQLVQSGAEVKKPGSSVKVSCKASGYSFTGYNMNWVRQAPGQGLEWMGNIDPYYGGTNYNQKFKGRVTITADKSTSTAYMELSSLRSEDTAVYYCARETWFITTGVIKKGFYFDYWGQGTTVTVSS VL: EIVLTQSPATLSLSPGERATLSCSASSIISSNYLHWYQQKPGQAPRLLIYRTSSLASGIPARFSGSGSGTDFTLTISSLEPEDFAVYYCQQGSSIPRTFGGGTKVEIKR |  | 0.269 µg/mL |  | 0.246 µg/mL |
| 27B9-1G3_hzH4L2_hIgG1 (antibody, V domains shown, Humanized, hIgG1/K; hzVH04 + hzVL02) VH: QVQLVQSGAEVKKPGSSVKVSCKASGYSFTGYNMNWVRQAPGQGLEWMGNIDPYYGGTNYNQKFKGKATITADKSTSTAYMELSSLRSEDTAVYYCARETWFITTGVIKKGFYFDYWGQGTTVTVSS VL: EIVLTQSPATLSLSPGERATLACSASSIISSNYLHWYQQKPGQAPRLLIYRTSSLASGIPARFSGSGSGTDYTLTISSLEPEDFAVYYCQQGSSIPRTFGGGTKVEIKR |  | 0.162 µg/mL |  | 0.196 µg/mL |
| 27B9-1G3_hzH4L3_hIgG1 (antibody, V domains shown, Humanized, hIgG1/K; hzVH04 + hzVL03) VH: QVQLVQSGAEVKKPGSSVKVSCKASGYSFTGYNMNWVRQAPGQGLEWMGNIDPYYGGTNYNQKFKGKATITADKSTSTAYMELSSLRSEDTAVYYCARETWFITTGVIKKGFYFDYWGQGTTVTVSS VL: EIVLTQSPATLSLSPGERATLACSASSIISSNYLHWYQQKPGQSPRLLIYRTSSLASGVPARFSGSGSGTSYTLTISSLEPEDFAVYYCQQGSSIPRTFGGGTKVEIKR |  | 0.167 µg/mL |  | 0.22 µg/mL |
| 27B9-1G3_hzH4L1_hIgG1 (antibody, V domains shown, Humanized, hIgG1/K; hzVH04 + hzVL01) VH: QVQLVQSGAEVKKPGSSVKVSCKASGYSFTGYNMNWVRQAPGQGLEWMGNIDPYYGGTNYNQKFKGKATITADKSTSTAYMELSSLRSEDTAVYYCARETWFITTGVIKKGFYFDYWGQGTTVTVSS VL: EIVLTQSPATLSLSPGERATLSCSASSIISSNYLHWYQQKPGQAPRLLIYRTSSLASGIPARFSGSGSGTDFTLTISSLEPEDFAVYYCQQGSSIPRTFGGGTKVEIKR |  | 0.163 µg/mL |  | 0.178 µg/mL |
| 27B9-1G3_hzH2L2_hIgG1 (antibody, V domains shown, Humanized, hIgG1/K; hzVH02 + hzVL02) VH: QVQLVQSGAEVKKPGSSVKVSCKASGYSFTGYNMNWVRQAPGQGLEWMGNIDPYYGGTNYNQKFKGRVTITADKSTSTAYMELSSLRSEDTAVYYCARETWFITTGVIKKGFYFDYWGQGTTVTVSS VL: EIVLTQSPATLSLSPGERATLACSASSIISSNYLHWYQQKPGQAPRLLIYRTSSLASGIPARFSGSGSGTDYTLTISSLEPEDFAVYYCQQGSSIPRTFGGGTKVEIKR |  | 0.299 µg/mL |  | 0.19 µg/mL |
| 27B9-1G3_hzH1L3_hIgG1 (antibody, V domains shown, Humanized, hIgG1/K; hzVH01 + hzVL03) VH: QVQLVQSGAEVKKPGSSVKVSCKASGGTFSGYNMNWVRQAPGQGLEWMGNIDPYYGGTNYNQKFKGRVTITADKSTSTAYMELSSLRSEDTAVYYCARETWFITTGVIKKGFYFDYWGQGTTVTVSS VL: EIVLTQSPATLSLSPGERATLACSASSIISSNYLHWYQQKPGQSPRLLIYRTSSLASGVPARFSGSGSGTSYTLTISSLEPEDFAVYYCQQGSSIPRTFGGGTKVEIKR |  | 0.228 µg/mL |  | 0.175 µg/mL |
